Where a chain is given by its changes, count along the chain named.
Experiments:
[1] = biological target: T1, human TROP2 protein (Sino Biological, #10428-H08H) (human, UniProt P09758 27-274); experiment: BLI, Octet RED96, AHC sensor
T1 construct: bought protein; also called human Trop2 protein antigen (His tag); not shown: His tag
T1 sequence (looked up): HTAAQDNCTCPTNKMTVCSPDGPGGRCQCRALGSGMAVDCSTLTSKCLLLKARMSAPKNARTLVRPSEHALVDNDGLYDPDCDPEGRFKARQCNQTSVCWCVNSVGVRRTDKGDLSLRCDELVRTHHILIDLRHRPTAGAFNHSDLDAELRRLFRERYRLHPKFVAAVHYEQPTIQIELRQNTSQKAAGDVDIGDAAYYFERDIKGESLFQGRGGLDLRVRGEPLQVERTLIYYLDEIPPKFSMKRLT
Description: (§1) Specifically, a human TROP2 protein (Sino Biological, #10428-H08H) or a monkey Trop2 protein (Sino Biological, #90893-C08H) was diluted to 200 nM with a PBS buffer (pH 7.4) containing 0.1% (w/w) BSA and 0.02% (v/v) tween 20, and incubated with the AHC sensor respectively. 40 nM Trop2 antibody was incubated at 30° C. for 3 min with the AHC sensor loaded with the human Trop2 protein or monkey Trop2 protein respectively. The reaction mixture was incubated at 30° C. for another 5 min in a PBS buffer (pH 7.4) containing 0.1% (v/w) BSA and 0.02% (v/v) Tween 20. The association and dissociation signals between the Trop2 antibody and the human Trop2 protein or monkey Trop2 protein were recorded by Octet Red 96 in real time. The affinity and the association and dissociation constants were determined by Octet using software.

[2] = biological target: T2, monkey Trop2 protein (Sino Biological, #90893-C08H) (monkey, UniProt A0A2K5UE71 27-274); experiment: BLI, Octet RED96, AHC sensor
T2 construct: bought protein; also called monkey Trop2 protein antigen (His tag)
T2 sequence: T1 sequence (looked up) with M36V, K46E, S67N, I204V
Description: as §1

[3] = biological target: T2, monkey Trop2 protein (Sino Biological, …); experiment: BLI, Octet RED96; ratio against KD for human Trop2 protein
Description: as §1

human Trop2 on cells = biological target: T3, human Trop2 on cells (human, UniProt P09758 27-323); experiment: flow cytometry on 293T-human Trop2 cells
T3 construct: whole, on cells; also called hTrop2; 293T-human Trop2 cells
T3 sequence (looked up): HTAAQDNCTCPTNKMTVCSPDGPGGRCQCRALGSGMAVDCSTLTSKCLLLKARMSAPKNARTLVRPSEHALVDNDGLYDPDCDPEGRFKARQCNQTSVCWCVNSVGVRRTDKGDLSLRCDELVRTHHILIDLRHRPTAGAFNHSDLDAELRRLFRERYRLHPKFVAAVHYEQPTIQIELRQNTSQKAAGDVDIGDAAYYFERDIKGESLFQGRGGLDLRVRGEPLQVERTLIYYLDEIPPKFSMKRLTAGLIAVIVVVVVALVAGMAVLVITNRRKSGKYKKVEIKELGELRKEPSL
Description: The cell density was determined, and the cells were resuspended to 1×10⁶ cells/mL in PBS. 100 μL of cell suspension was taken from each well and added to a 96 well V-bottom plate. The 96-well V-bottom plate was centrifuged at 1000 rpm for 5 min and washed once with PBS+0.5% BSA (VWR, #0332-100G). […] After 1 h, the cells were washed twice with PBS+0.5% BSA. The cells were incubated with 100 μL of Alexa Fluor 488 goat anti-human IgG (Life technologies, 1:1000, #A-11013) at 4° C. for 1 h in the dark, and washed twice with PBS+0.5% BSA. The cells were resuspended in 200 μL of PBS+0.5% BSA. The fluorescence intensity of the cells was analyzed using a FACS verse flow cytometer. All procedures were performed on ice.

B1: PR001155 (antibody, human IgG1, kappa, V domains shown)
VH: QVQLVQSGGGVVQPGRSLRLSCAASGFTFSHYGMHWVRQAPGKGLEWVAVIWYDGIKKYYVESVKGRFTISRDNSKNTLYLQMNRLRAEDTAVYYCARDGGFGELNYYGLDVWGQGTTVTVSS
VL: DIQLTQSPSFLSASVGDRVTITCRASQGISSYLGWYQQKPGKAPKLLIYVASTLQSGVPSRFSGSGSGTEFTLTISSLQPEDFATYYCQQLNSYPYTFGQGTKLEIKR
notes: fully human IgG1/kappa; also called antibody No. (18)
Kd [1]: 1.84 nM
Response [1]: 0.406
koff [1]: 0.000144 s⁻¹
kon [1]: 78100 M⁻¹ s⁻¹
Kd [2]: 4.26 nM
Response [2]: 0.356
koff [2]: 0.000219 s⁻¹
kon [2]: 51500 M⁻¹ s⁻¹
KD (monkey)/KD (human) [3]: 2.32
EC50 (human Trop2 on cells): 2.54 nM
Maximum (MFI) (human Trop2 on cells): 7320 MFI
Top % (human Trop2 on cells): 113%

B2: PR001156 (antibody, human IgG1, kappa, V domains shown)
VH: B1 VH with Q6E, A23E, A24G, Y59N, E62D, V64L, R85S, L110M
VL: B1 VL with V50I
notes: fully human IgG1/kappa; also called antibody No. (19)
Kd [1]: 0.0916 nM
Response [1]: 0.354
koff [1]: 1.67e-05 s⁻¹
kon [1]: 183000 M⁻¹ s⁻¹
Kd [2]: 0.536 nM
Response [2]: 0.349
koff [2]: 6.15e-05 s⁻¹
kon [2]: 115000 M⁻¹ s⁻¹
KD (monkey)/KD (human) [3]: 5.85
EC50 (human Trop2 on cells): 1.67 nM
Maximum (MFI) (human Trop2 on cells): 7270 MFI
Top % (human Trop2 on cells): 112%

B3: PR001158 (antibody, human IgG1, kappa, V domains shown)
VH: B1 VH with Q6E, A23V, Y80N, L105S
VL: B1 VL with V50I
notes: fully human IgG1/kappa; also called antibody No. (20)
Kd [1]: 0.155 nM
Response [1]: 0.433
koff [1]: 2.05e-05 s⁻¹
kon [1]: 132000 M⁻¹ s⁻¹
Kd [2]: 0.708 nM
Response [2]: 0.406
koff [2]: 6.23e-05 s⁻¹
kon [2]: 87900 M⁻¹ s⁻¹
KD (monkey)/KD (human) [3]: 4.56
EC50 (human Trop2 on cells): 1.26 nM
Maximum (MFI) (human Trop2 on cells): 6950 MFI
Top % (human Trop2 on cells): 107%

B4: PR001160 (antibody, human IgG1, kappa, V domains shown)
VH: B1 VH with Q6E, A23E, K57M, Y59N, V61I
VL: B1 VL
notes: fully human IgG1/kappa; also called antibody No. (22)
Kd [1]: 0.819 nM
Response [1]: 0.39
koff [1]: 9.48e-05 s⁻¹
kon [1]: 116000 M⁻¹ s⁻¹
Kd [2]: 1.82 nM
Response [2]: 0.36
koff [2]: 0.000135 s⁻¹
kon [2]: 74300 M⁻¹ s⁻¹
KD (monkey)/KD (human) [3]: 2.22
EC50 (human Trop2 on cells): 1.22 nM
Maximum (MFI) (human Trop2 on cells): 6710 MFI
Top % (human Trop2 on cells): 104%

B5: PR001163 (antibody, human IgG1, kappa, V domains shown)
VH: B1 VH with Q6E, G10D, A23E, I51V
VL: B1 VL
notes: fully human IgG1/kappa; also called antibody No. (24)
Kd [1]: 0.79 nM
Response [1]: 0.396
koff [1]: 8.34e-05 s⁻¹
kon [1]: 106000 M⁻¹ s⁻¹
Kd [2]: 1.96 nM
Response [2]: 0.372
koff [2]: 0.000134 s⁻¹
kon [2]: 68400 M⁻¹ s⁻¹
KD (monkey)/KD (human) [3]: 2.48
EC50 (human Trop2 on cells): 0.496 nM
Maximum (MFI) (human Trop2 on cells): 5990 MFI
Top % (human Trop2 on cells): 92.4%

B6: PR001145 (antibody, human IgG1, kappa, V domains shown)
VH: QVQLVESGGGVVQPGRSLRLSCAASGFTFSSFGMQWVRQGPGKGLEWVAIMWFDGSNKYYVDSVKGRFTISRDNSKNTLYLQMNSLRAEDTAVYYCARLDFSGWPLIDYWGQGTLVTVSS
VL: not shown
notes: fully human IgG1/kappa; also called antibody No. (11)
Kd [1]: 14.7 nM
Response [1]: 0.29
koff [1]: 0.00135 s⁻¹
kon [1]: 91900 M⁻¹ s⁻¹
Kd [2]: 19.1 nM
Response [2]: 0.277
koff [2]: 0.00134 s⁻¹
kon [2]: 70100 M⁻¹ s⁻¹
KD (monkey)/KD (human) [3]: 1.3
EC50 (human Trop2 on cells): 0.48 nM
Maximum (MFI) (human Trop2 on cells): 7030 MFI
Top % (human Trop2 on cells): 108%

Source: patent US20240067748A1 (NONA BIOSCIENCES SUZHOU, published 2024)
